Biological target: SARS-CoV-2 Spike protein (SARS-CoV-2, UniProt P0DTC2 14-1273)
Experiment: cell-based or functional assay

B1: affinity-matured nanobody R18 (VHH)
VHH: QVQLQESGGGLVQAGGSLRLSCAASGSISRDYDMGWYRQAPGKERKFVAGINVGGTTNYAGSVKGRFTISRDNAKNTVYLQMNSLKPEDTAVYYCAVHAVYTDGWEDGYLYPLPYWGQGTQVTVSS
- neutralizing effect calculated by IC50 (SARS-CoV-2 pseudovirus on hACE2-293T cells), against parental R18: ~100 times

B2: affinity-matured nanobody R13 (VHH)
VHH: QVQLQESGGGLVQAGGSLRLSCAASGTIFQVSSMGWYRQAPGKERKFVATIADGSSTNYAGSVKGRFTISRDNAKNTVYLQMNSLKPEDTAVYYCAALGQVSEYNSASYEWTYPYWGQGTQVTVSS
- neutralizing effect calculated by IC50 (SARS-CoV-2 pseudovirus on hACE2-293T cells), against parental R13: ~100 times

Reference: patent US20230218777A1 (Stanford University, published 2023)
